Where a SMILES comes first, the peptide text is derived from it. The star is where a group is joined. IRDye800CW = CC1(C)C(/C=C/C2=C(Oc3ccc(S(=O)(=O)O)cc3)C(=C/C=C3/N(CCCCS(=O)(=O)O)c4ccc(S(=O)(=O)O)cc4C3(C)C)/CCC2)=[N+](CCCCCC(=O)*)c2ccc(S(=O)(=O)[O-])cc21
Experiments:
[1] = tested on: FBS (fetal bovine serum) proteins; assay: FBS protein binding assay; conditions: 25 μM in 100% FBS, room temperature 30 s, Amicon 10 K cutoff, 12,000 g 15 min, fluorescence, p < 0.05
Experimental: FBS protein binding assay. […] The concentration was chosen as the maximum expected in blood from an intravenous imaging dose of 40 nmol in a 20 g mouse, with a blood factor of 0.078 [40, 41]. Solutions (300 μL) were then loaded into an Amicon unit (0.5 mL, 10 K cutoff) and centrifuged at 12,000× g for 15 min [28]. Samples from the filtrate (50 μL), residual (5 μL), and original solution (5 μL) were loaded in duplicate into black wall 96-well plates containing 50 (for filtrate) or 95 (for residual and original) μL of PBS with 0.2% BSA. For an additional wash, 300 μL of PBS was then added into the Amicon unit. The unit was centrifuged as above. The same amounts of each of the parts were loaded into wells. Fluorescence intensity for each fraction was calculated by fraction volume × fluorescent unit/μL. Single factor ANOVA was used to analyze the data with p < 0.05 considered significant.

In vitro serum stability = conditions: nu/nu, mouse
[2] = HPLC Rt as measure of relative lipophilicity; conditions: chromatographic, C18 RP (XBridge 150 × 4.6 mm, 3.5 μm), water/ACN 0.1% TFA, 20 to 50% ACN up to 10 min, 50 to 70% from 10 to 30 min, 1 mL/min, NIRF detection
Cal 27 cells = assay: Fluorescence microscopy assay on Cal 27 cells; assay type: cell-based, Human; conditions: 10 μM, 1 h and 24 h incubations, 37 °C, 800 nm emission
Experimental: Fluorescence microscopy assays. Cal 27 cells were seeded at 70,000/well in duplicate on eight-well chamber slides and allowed to attach overnight. Cell culture medium was replaced with 200 μL medium containing 10 μM peptides. Cells were incubated at 37 °C for 1–24 h followed by washing four times with 300 μL of HEPES buffer (25 mM HEPES 150 mM NaCl at pH 7.4) and once with the buffer containing 1 μg/mL DAPI. The chamber slide scaffold was then removed. Each chamber was then covered by a drop of aqua-poly mount and a coverslip, and sealed with clear nail polish. Cells were imaged with an Olympus IX81 microscope using an 800 nm emission filter set for IRDye800 conjugates and 461 nm for DAPI. Images were captured at 800 nm (red) for 5 s and at 461 nm (blue) with the automatic settings, at 200×. […]
the measured fluorescence.
The ratio of uptake at 2 h drops to about 13. Note:
Figure 2 data are normalized to fHN-1-IR800 that was run adjacent to each of the hybrid-peptides. f-HN1- […]
vertical scale magnitude of 4IphfHN17-IR800 between Figure 2 at ~4.5 and Figure S3 at ~13.
Figure S4.Fluorescence microscopy of 1 h and 24 h incubations of 10 µM IR800-labeled hybrid-peptides in […]
Cal 27 cells. […] HN1-IR800, HNJ-
Figure S5. Blood clearance of hybrid-peptide molecules from normal mice as described in Materials and Methods. […]

Structure (SMILES)	peptide bound to FBS proteins [1] [%]	half-life at 6.4 μM (In vitro serum stability) [min]	HPLC Rt (relative lipophilicity) [2] [min]	Uptake in Cal 27 cells by fluorescence microscopy (Cal 27 cells)
CC[C@H](C)[C@H](NC(=O)[C@H](CC(N)=O)NC(=O)[C@H](CC(C)C)NC(=O)[C@@H]1CCCN1C(=O)[C@H](CO)NC(=O)[C@@H](N)[C@@H](C)O)C(=O)N[C@@H](Cc1c[nH]cn1)C(=O)N[C@@H](CC(N)=O)C(=O)NCC(=O)N[C@@H](CCC(N)=O)C(=O)N[C@@H](CCCCNC(=O)CCCCC[N+]1=C(/C=C/C2=C(Oc3ccc(S(=O)(=O)O)cc3)C(=C/C=C3/N(CCCCS(=O)(=O)O)c4ccc(S(=O)(=O)O)cc4C3(C)C)/CCC2)C(C)(C)c2cc(S(=O)(=O)[O-])ccc21)C(=O)N[C@@H](CC(C)C)C(N)=O [HN1-IR800] (H-TSPLNIHNGQK(IRDye800CW)L-NH2)	~52	50.4	7.31	–
CC1(C)C(/C=C/C2=C(Oc3ccc(S(=O)(=O)O)cc3)C(=C/C=C3/N(CCCCS(=O)(=O)O)c4ccc(S(=O)(=O)[O-])cc4C3(C)C)/CCC2)=[N+](CCCCCC(=O)O)c2ccc(S(=O)(=O)O)cc21 [IR800-COOH]	–	–	–	not observably taken up

— article PMC6749330, “Novel Peptide NIRF Optical Surgical Navigation Agents for HNSCC” (Molecules, 2019)
